Data: patent publication EP3984547A1 (Universitat Pompeu Fabra, dated 2022)
Where no end group is shown, it is not given here.

T1: TWEAK (Peprotech EC, Ltd, U.K.) (UniProt O43508 94-249, limits assumed)
T1 sequence (looked up): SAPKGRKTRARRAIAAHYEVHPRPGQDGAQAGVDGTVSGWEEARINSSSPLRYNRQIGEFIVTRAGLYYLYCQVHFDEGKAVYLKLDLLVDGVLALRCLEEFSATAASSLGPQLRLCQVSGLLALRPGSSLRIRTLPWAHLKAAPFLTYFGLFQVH

T2: Histidine-tagged human TWEAK (His6-TWEAK) protein (R&D Systems) (human, UniProt O43508 93-249, limits assumed)
T2 construct: Bought protein, captured through the His6 tag on an NTA chip and then coupled covalently by amine coupling; also called human His6-TWEAK protein; histidine-tagged TWEAK; not shown: His6 tag
T2 sequence (looked up): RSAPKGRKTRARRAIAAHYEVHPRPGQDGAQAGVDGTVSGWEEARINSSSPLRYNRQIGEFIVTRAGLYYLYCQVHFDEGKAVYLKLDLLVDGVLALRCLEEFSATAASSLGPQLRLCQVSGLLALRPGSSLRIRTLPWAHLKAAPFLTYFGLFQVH


How the values were obtained:
[1] = molecular target: T1, TWEAK (Peprotech EC, Ltd, U.K.); experiment: cell-based or functional assay
[2] = molecular target: T2, Histidine-tagged human TWEAK …; experiment: SPR (Biacore 3000), His6-TWEAK immobilized on NTA chip, peptide as analyte, 1:1 Langmuir fit

Binder | BIRC2 normalized level of expression (Zscore vs NARS2), RT-PCR, cells with peptide at 450 µM [1] [Zscore] | HSP90B1 normalized level of expression (Zscore vs NARS2), RT-PCR, cells with peptide at 450 µM [1] [Zscore] | IL6 normalized level of expression (Zscore vs NARS2), RT-PCR, cells with peptide at 450 µM [1] [Zscore] | JUN normalized level of expression (Zscore vs NARS2), RT-PCR, cells with peptide at 450 µM [1] [Zscore] | MAP4K4 normalized level of expression (Zscore vs NARS2), RT-PCR, cells with peptide at 450 µM [1] [Zscore] | MAPK14 normalized level of expression (Zscore vs NARS2), RT-PCR, cells with peptide at 450 µM [1] [Zscore] | NFkB2 normalized level of expression (Zscore vs NARS2), RT-PCR, cells with peptide at 450 µM [1] [Zscore] | TNFRSF12A normalized level of expression (Zscore vs NARS2), RT-PCR, cells with peptide at 450 µM [1] [Zscore] | TRAF2 normalized level of expression (Zscore vs NARS2), RT-PCR, cells with peptide at 450 µM [1] [Zscore] | Kd [2] [µM]
SYTDVQDS-NH2 [Peptide 3: SYTDVQDS (SEQ ID NO: 3)] | -0.115 | -0.468 | -0.972 | -0.206 | -1.36 | -0.585 | -1.15 | -1.08 | -0.577 | 
DNGGGNTDIYSE-NH2 [Peptide 4: DNGGGNTDIYSE (SEQ ID NO: 4)] | -0.61 | -0.921 | -0.045 | -0.509 | -1.56 | -1.11 | -1.32 | -1.11 | -0.439 | 
SWYDHMAGDSSY-NH2 [Peptide 1: SWYDHMAGDSSY (SEQ ID NO: 2)] | -0.747 | -1.1 | 0.198 | -0.509 | -1.7 | -1.11 | -1.51 | -1.05 | -0.548 | 
TTDGSTGDDLQA-NH2 [Peptide 2: TTDGSTGDDLQA (SEQ ID NO: 1)] | -0.996 | -1.31 | -0.535 | -0.488 | -1.13 | -1.01 | -1.21 | -1.11 | -0.409 | 170
